Molecular target: T1, proGDF11 (Mus musculus, UniProt Q9Z1W4)
T1 construct: The text calls it recombinant mouse GDF11 / rGDF11, and the sheet labels it '10x proGDF11'; also called recombinant mouse GDF11; rGDF11 (murine)
T1 sequence (proprotein, looked up): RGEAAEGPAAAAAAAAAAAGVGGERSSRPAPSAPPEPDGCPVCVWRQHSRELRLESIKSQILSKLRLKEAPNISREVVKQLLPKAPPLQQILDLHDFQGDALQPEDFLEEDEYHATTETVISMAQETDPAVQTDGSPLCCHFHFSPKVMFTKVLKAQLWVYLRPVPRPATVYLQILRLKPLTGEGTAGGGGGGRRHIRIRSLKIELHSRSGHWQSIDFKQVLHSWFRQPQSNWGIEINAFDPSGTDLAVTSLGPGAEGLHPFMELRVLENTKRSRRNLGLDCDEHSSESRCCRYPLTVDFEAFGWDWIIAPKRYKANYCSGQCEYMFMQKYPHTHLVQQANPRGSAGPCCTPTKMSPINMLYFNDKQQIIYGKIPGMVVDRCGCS
Assay: recombinant protein absorption: Ab10 at 50 µg/mL pre-incubated overnight with 10-fold molar excess of recombinant mouse GDF11, then used as primary antibody for immunofluorescence on mouse tibialis anterior sections; read-out is retained tissue pro/latent GDF8 staining
Protocol: Tibialis anterior (TA) muscles were fixed in ice cold 4% paraformaldehyde (EMS), PBS for 30 min, incubated overnight in 10% sucrose, PBS at 4° C., then incubated overnight in 20% sucrose, PBS. Muscles were then mounted on cork with tragacanth (Sigma) and frozen in liquid nitrogen cooled isopentane (Sigma) for cryosectioning. 10 μm sections of TA muscle were permeabilized with 0.1% Triton-X 100 (Sigma), PBS for 20 minutes, washed once with 0.05% Triton-X 100, PBS (PBS/T), and then incubated in Mouse IgG blocking reagent (Vector Lab) diluted at 1 drop per 1.5 mL PBS/T for 1 h. Sections were washed once with PBS/T and then incubated in 10% Normal Goat Serum (Sigma), 1% Blocking powder (Perkin Elmer), PBS/T (NGB) for 30 minutes at room temperature. Primary antibodies (Rabbit anti-laminin, 1:5000, Abcam; Ab10, […]; HuNeg, 50 μg/mL,) were diluted in NGB and applied to sections overnight at 4° C. Sections were washed 3 times with PBS/T, and then incubated in secondary antibodies (Alexa Fluor 488 conjugated Goat anti-Rabbit, 1:1000, Invitrogen; Alexa Fluor 594 conjugated Goat anti-Human IgG FCY, 1:500, Jackson ImmunoResearch) diluted in NGB for 1 h. Sections were then incubated in 350 nM DAPI (Thermo), PBS/T for 5 minutes, washed twice with PBS/T, and then mounted with Vectashield (Vector Laboratories). […]

binding result: no binding
B1: anti-pro/latent GDF8 antibody, Ab10 (antibody, V domains shown)
VH: EVQLVQSGGGVVQSGRSLRLSCVASGFSFSNYGMHWVRQAPGKGLEWLAFIWYDGSNKWYADSVKGRFTISRDNSKNALYLQMNSLRAEDTAVYYCARDRYSSSWGGGFDYWGQGTVLTVSS
VL: NFMLTQPHSVSESPGRTVTIPCSGRGGSIASDSVQWYQQRPGSAPTTIIYEDNQRPSGVPDRFSGSVDSSSNSASLTISGLRTEDEADYYCQSYDASSLWVFGGKTKLTVLG
notes: The VL as printed runs into the start of the lambda constant region

Reference: patent US20260035447A1 (SCHOLAR ROCK, published 2026)
